Measurements as given in patent publication US11045560B2, “Therapeutic conjugates with sulfated dendrimers for intracellular targeting” (IC DISCOVERY GMBH, priority 2014, dated 2021).
No end group written: not given here. d02 = not defined here

Assays:
[1] = test system: HT29, HepG2, QGP-1, A431, MCF-7, A2780; assay: Inhibition of cell proliferation measured by MTT test; format: cell-based, human
[2] = test system: HT29, HepG2, QGP-1, MCF-7; assay: Inhibition of cell proliferation by MTT test, comparison to sulfated polymer; format: cell-based, human; details: range from 4 cell lines (Table 8)
Protocol: For cytotoxicty measurements, 2×10^5 cells were incubated with 1 ml culture medium containing increasing concentrations of test substances. After 72 hs treatment, cell number, viability and cell diameter as parameter of apoptotic processes were analyzed in a cell counter and analyzer system (CASY®, Schärfe Systems). In addition, drug cytotoxicity was assessed in vitro using the MTT assay (cellular reduction of 3-(4,5-dimethylthiazol-2-yl)-2,5-diphenyltetrazolium bromide) as a test for metabolic activity of the cells. 1×10^4 cells per well were seeded in 96-well plates in 100 μl culture medium containing increasing concentration of the test substance. 10 μl MTT (5 mg/ml in PBS, obtained from Sigma) was added to each well and the plates were incubated for 4 hrs, 24 hrs, 48 hrs or up to 72 h. The resulting formazan product was dissolved with acid isopropanol and the absorbance at a wavelength of 570 nm (Ex570) was read on a Microplate Spectrophotometer (Anthos htII, Microsystems). In a couple of experiments, medium with test substances was removed after 48 hs, cells were counted and identical cell numbers with new medium without test substances were seeded in new plates. MTT assay was performed after further incubation for 72 hours.
This polymer is functionalized with the linker maleimido-PEG(4)-COOH NHS ester as described in example 2a, and further purified via RP chromatography. […]

[3] = test system: HT29, HepG2, QGP-1, A431, MCF-7, A2780; details: for % uptake: FACS, relative to ICC-d01, range from different cell lines, incubation 24 h, conjugates additionally ICC-labeled, fluorescence-corrected
Protocol: The human cancer cell lines A2780 and QGP-1 are cultured in RPMI medium, with 10% fetal calf serum (FCS), 2% glutamine, and penicillin/streptomycin added. All cells are seeded into medium at 1×10^5 cells/ml, cultured at 37° C. with 5% CO2, and split 1:5 two times a week. The epithelial human cancer cell lines A549, MCF7, HaCaT, and HepG2 are propagated in DMEM medium (PAN Biotech), with 10% fetal FCS, 2% glutamine, and penicillin/streptomycin. Cells are seeded into medium at 1×10^5 cells/ml (37° C. with 5% CO2, split 1:5 two times a week). HT29 cells are cultured in McCoy's medium (PAN biotech), with 10% FCS), 2% glutamine, and penicillin/streptomycin. Cells are seeded into medium at 1×10^5 cells/ml (37° C. with 5% CO2, split 1:10 two times a week). […] Afterwards, cells are fixed with cold acetone, rinsed and covered with 4,6-diamidino-2-phenylindole (DAPI, Abcam) for nuclear counterstain. Image acquisition is performed using a Leica DMRB microscope (Leica). Images are taken with a digital camera (Spot 32, Diagnostic Instruments) with the same exposure time for all pictures. […] This amount and time is sufficient to measure the supernatant after pooling and cell lysis with DMSO.
For FACS studies, 2×10^5 cells/ml cells are cultured in 24-well plates with normal culture medium or medium containing different concentrations of test substances for 3 or 24 hours. Thereafter, cells are washed with PBS and detached with 200 μl/well accutase (PAA) and washed two times with PBS. Cells are fixed with 500 μl 3% paraformaldehyde for 10 min at 4° C., stopped with 2 ml PBS and centrifuged with 250×g, for 10 min at 4° C. Supernatants are removed and cells were suspended in 200 μl PBS with 0.5% bovine serum albumin (Roth).
Fixed cells are kept at 4° C. until analysis in a FACS Calibur instrument (Becton-Dickinson).

QGP-1 tumor cells = assay: Uptake into QGP-1 cells by FACS in presence of genistein or rifamycin; format: cell-based, human; details: for uptake +genistein (%) / uptake +rifamycin (%): relative to without inhibitor; for uptake w/o inhibitor (%): without inhibitor defined as 100%
Protocol: Studies on cellular uptake measured by FACS were conducted as described in example 13. Compound Asp-d13 is incubated at a concentration of 10^−7 M in QGP-1 tumor cells for 3 h and 6 h. Incubation is done in the presence of one of the following two substrates: (1) 0.1 mM genistein, an inhibitor for endocytotic uptake (Rejman et al., Mol. Ther. 2005, 12, 468-474) or (2) 50 mM rifamycin, an inhibitor of uptake via organic anion transporter proteins (OATP; Bi et al., Drug Metab Dispos. 2012, 40, 1085-92).

[4] = range from different cell lines, peptide-dendrimer conjugates (Table 7)
[5] = range from different cell lines (Table 6)

Molecule	IC50 [1, 4]	IC50 [1, 5]	% uptake [3]	further results
d02-P5: peptide P5 conjugated to maleimido dendrimer d02 (C(d02)GEEQWAREIGAQLRRMADDLNAQYER-NH2; reading uncertain; also: conjugated via N-terminal Cys thiol to maleimido dendrimer d02)	800 to 2000 nM	–	–	–
saporin	–	> 1000 nM	5-8%	IC50 [2]: > 1000 nM
d02-P1: peptide P1 conjugated to maleimido dendrimer d02 (CGMRPEIWIAQELRRIGDEFNA; conjugated to maleimido dendrimer d02; BIM)	900 to 2100 nM	–	–	–
Diphtheria toxin	–	> 500 nM	8-10%	–
DNase	–	> 2000 nM	4-12%	–
d02-P6: peptide P6 conjugated to maleimido dendrimer d02 (C(d02)GEDIIRNIARHAAQVGASADRSI-NH2; reading uncertain; also: conjugated via N-terminal Cys thiol to maleimido dendrimer d02)	1200 to 2300 nM	–	–	–
L-asparaginase (protein, UniProt P00805 23-348, looked up, enzyme, homotetramer of 4 units of 34 kDa (L-asparaginase 5000E, Medac), without dendrimer) L-asparaginase 2: LPNITILATGGTIAGGGDSATKSNYTVGKVGVENLVNAVPQLKDIANVKGEQVVNIGSQDMNDNVWLTLAKKINTDCDKTDGFVITHGTDTMEETAYFLDLTVKCDKPVVMVGAMRPSTSMSADGPFNLYNAVVTAADKASANRGVLVVMNDTVLDGRDVTKTNTTDVATFKSVNYGPLGYIHNGKIDYQRTPARKHTSDTPFDVSKLNELPKVGIVYNYANASDLPAKALVDAGYDGIVSAGVGNGNLYKSVFDTLATAAKTGTAVVRSSRVPTGATTQDAEVDDAKYGFVASGTLNPQKARVLLQLALTQTKDPQQIQQIFNQY	–	> 1500 nM	4-7%	uptake into tumor cells ([3]; in words, referring to example 15): do not show uptake into tumor cells
Asp-d13: L-asparaginase conjugated with maleimido dendrimer d13 (conjugate, UniProt P00805 23-348, looked up, maleimido dendrimer d13 conjugate) L-asparaginase 2: LPNITILATGGTIAGGGDSATKSNYTVGKVGVENLVNAVPQLKDIANVKGEQVVNIGSQDMNDNVWLTLAKKINTDCDKTDGFVITHGTDTMEETAYFLDLTVKCDKPVVMVGAMRPSTSMSADGPFNLYNAVVTAADKASANRGVLVVMNDTVLDGRDVTKTNTTDVATFKSVNYGPLGYIHNGKIDYQRTPARKHTSDTPFDVSKLNELPKVGIVYNYANASDLPAKALVDAGYDGIVSAGVGNGNLYKSVFDTLATAAKTGTAVVRSSRVPTGATTQDAEVDDAKYGFVASGTLNPQKARVLLQLALTQTKDPQQIQQIFNQY	–	10 to 20 nM	–	FACS signal in the presence of genistein relative to without inhibitor (QGP-1 tumor cells; 10^−7 M, 3 h and 6 h, 0.1 mM genistein): 80-85%; FACS signal in the presence of rifamycin relative to without inhibitor (QGP-1 tumor cells; 10^−7 M, 3 h and 6 h, 50 mM rifamycin): 37-40%
Asp-polyglycerolsulfate: L-asparaginase coupled to a polyglycerolsulfate, mean molecular weight 12000 Da, according to WO2011/095311 (conjugate, UniProt P00805 23-348, looked up, polyglycerolsulfate conjugate, 12000 Da) L-asparaginase 2: LPNITILATGGTIAGGGDSATKSNYTVGKVGVENLVNAVPQLKDIANVKGEQVVNIGSQDMNDNVWLTLAKKINTDCDKTDGFVITHGTDTMEETAYFLDLTVKCDKPVVMVGAMRPSTSMSADGPFNLYNAVVTAADKASANRGVLVVMNDTVLDGRDVTKTNTTDVATFKSVNYGPLGYIHNGKIDYQRTPARKHTSDTPFDVSKLNELPKVGIVYNYANASDLPAKALVDAGYDGIVSAGVGNGNLYKSVFDTLATAAKTGTAVVRSSRVPTGATTQDAEVDDAKYGFVASGTLNPQKARVLLQLALTQTKDPQQIQQIFNQY	–	–	–	uptake +genistein (%) (QGP-1 tumor cells; 3 h, 0.1 mM genistein): 50%; uptake +rifamycin (%) (QGP-1 tumor cells; 3 h, 50 mM rifamycin): 76%; uptake w/o inhibitor (%) (QGP-1 tumor cells; 3 h): 100%; uptake +genistein (%) (QGP-1 tumor cells; 6 h, 0.1 mM genistein): 55%; uptake +rifamycin (%) (QGP-1 tumor cells; 6 h, 50 mM rifamycin): 72%; uptake w/o inhibitor (%) (QGP-1 tumor cells; 6 h): 100%; dependency of uptake on endocytosis (QGP-1 tumor cells; inhibition by genistein, in words): endocytosis could be identified due to inhibition by genistein
